In paper PMC7346098 (Biochemistry, 2020):

Target: T1, KaiC_(S431E,T432E) (Synechococcus elongatus (PCC 7942), UniProt Q79PF4 1-519, S431E | T432E)
T1 sequence (looked up): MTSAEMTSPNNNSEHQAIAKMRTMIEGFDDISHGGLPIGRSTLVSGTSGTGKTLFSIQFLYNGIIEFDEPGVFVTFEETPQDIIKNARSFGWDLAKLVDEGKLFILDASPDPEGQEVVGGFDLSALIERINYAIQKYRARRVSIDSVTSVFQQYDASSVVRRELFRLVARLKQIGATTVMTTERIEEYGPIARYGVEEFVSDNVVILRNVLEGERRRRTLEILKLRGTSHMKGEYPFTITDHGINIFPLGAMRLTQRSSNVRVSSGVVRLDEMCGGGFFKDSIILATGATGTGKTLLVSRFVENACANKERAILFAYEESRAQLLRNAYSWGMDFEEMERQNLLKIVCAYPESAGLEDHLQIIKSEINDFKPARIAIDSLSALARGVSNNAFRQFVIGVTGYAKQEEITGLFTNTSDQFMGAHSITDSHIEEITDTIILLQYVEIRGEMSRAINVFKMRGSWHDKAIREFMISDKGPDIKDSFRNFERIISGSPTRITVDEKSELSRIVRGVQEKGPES
Test: fluorescence polarisation

B1: WT-KaiB (natural protein, Synechococcus elongatus (PCC 7942), UniProt Q79PF5 1-102, looked up)
chain: MSPRKTYILKLYVAGNTPNSVRALKTLKNILEVEFQGVYALKVIDVLKNPQLAEEDKILATPTLAKVLPLPVRRIIGDLSDREKVLIGLDLLYGELQDSDDF
  binding result: binds
